Measured values reported in paper PMC3970081 (Developmental cell, 2014).

How the values were obtained:
[1] = target: T1, His-MB (AnkG MB domain, aa 2–791, His-tagged) (UniProt O70511 2-791); test: SPR
T1 sequence (looked up): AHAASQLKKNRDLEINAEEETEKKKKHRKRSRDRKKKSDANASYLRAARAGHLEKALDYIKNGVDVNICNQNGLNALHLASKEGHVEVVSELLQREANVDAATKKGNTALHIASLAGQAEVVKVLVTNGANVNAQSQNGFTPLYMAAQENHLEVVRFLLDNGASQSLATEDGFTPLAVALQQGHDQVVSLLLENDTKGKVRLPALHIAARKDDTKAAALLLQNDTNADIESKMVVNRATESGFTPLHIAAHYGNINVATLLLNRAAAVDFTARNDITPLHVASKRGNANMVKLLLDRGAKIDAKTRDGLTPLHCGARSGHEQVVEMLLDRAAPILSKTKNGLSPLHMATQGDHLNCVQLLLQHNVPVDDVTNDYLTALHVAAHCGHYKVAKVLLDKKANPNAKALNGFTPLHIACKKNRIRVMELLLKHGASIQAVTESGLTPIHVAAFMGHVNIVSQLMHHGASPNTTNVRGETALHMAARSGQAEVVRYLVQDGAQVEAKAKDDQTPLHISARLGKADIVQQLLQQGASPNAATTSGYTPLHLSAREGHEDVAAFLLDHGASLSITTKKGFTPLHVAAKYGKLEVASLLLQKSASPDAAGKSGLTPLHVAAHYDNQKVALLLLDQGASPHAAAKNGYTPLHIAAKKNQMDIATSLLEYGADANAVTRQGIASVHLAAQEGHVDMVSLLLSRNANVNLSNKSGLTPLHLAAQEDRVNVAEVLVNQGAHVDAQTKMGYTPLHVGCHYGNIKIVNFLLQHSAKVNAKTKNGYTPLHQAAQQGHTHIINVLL

[2] = target: T2, His-AR1 (AnkG aa 2–236, His-tagged) (UniProt O70511 2-236); test: SPR
T2 sequence (looked up): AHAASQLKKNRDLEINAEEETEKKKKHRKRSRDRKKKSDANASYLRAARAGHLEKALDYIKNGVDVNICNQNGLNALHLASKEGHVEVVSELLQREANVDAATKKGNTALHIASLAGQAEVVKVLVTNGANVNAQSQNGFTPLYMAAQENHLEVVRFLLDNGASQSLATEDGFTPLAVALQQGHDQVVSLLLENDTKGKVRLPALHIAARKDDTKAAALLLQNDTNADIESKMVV

Kd [1]: 2.4 nM
koff [1]: 0.00059 s⁻¹
kon [1]: 290000 M⁻¹ s⁻¹
Kd [2]: 48 nM
koff [2]: 0.0014 s⁻¹
kon [2]: 32000 M⁻¹ s⁻¹
B1: GST-Tail (GST-tagged KIF5B tail, aa 758–963) (domain or fragment)
chain: not shown
